Measurements reported in patent US20260176336A1 (MESTAG THERAPEUTICS, published 2026).

How the values were obtained:
[1] = molecular target: T1, mouse LTBR on cells (4T1 tumor cell line; primary mouse lung fibroblasts) (mouse, UniProt P50284 31-415); test: cell-based or functional assay
[2] = molecular target: T1, mouse LTBR on cells (4T1 tumor cell …); test: cell-based or functional assay; remark: listed apart in the source
[3] = molecular target: T2, human LTBR endogenously expressed on cells (HepG2, A549, A375, HCC1187, RPMI-7951, primary human breast CAFs) (human, UniProt P36941 31-435); test: cell-based or functional assay
[4] = molecular target: T3, human FAP expressed on cells (transfected HEK293; FAP-CHO-K1 recombinant cell line, BPS cat no. 79947) (human, UniProt Q12884 1-760); test: flow cytometry, HEK293-FAP overexpressing cells
T3 construct: also called HuFAP-HEK293; Hek-FAP

[5] = molecular target: Human LTBR (Acro), recombinant protein (human, UniProt P36941 31-227, limits assumed); test: SPR (Carterra LSA) as in Example 2.6, antibody captured, LTBR as analyte
Description: (§1) The binding of anti-LTBR antibodies to human and cynomolgus LTBR was investigated by Surface Plasmon Resonance (SPR) on Carterra LSA. An EC30M chip was used to capture the test antibodies. Activation with EDC and sNHS occurred in MES pH 5.5 to prepare the chip for amine coupling. Goat anti-human IgG Fc antibody was then captured to the chip via incubation for 10 minutes. Excess conjugation sites were quenched with 1M Ethanolamine pH 8. To measure monovalent binding kinetics, antibodies were printed/spotted onto the chip and allowed to bind to the goat antibody, followed by subsequent washing. After the preparation, the printed chip was exposed to repeated rounds of association and dissociation with increasing analyte concentrations. In this work, recombinant proteins (Human LTBR (Acro) or cyno LTBR His (R&D)) were serially diluted across a range starting at 1500 nM with 3-fold dilutions and 10 points. The curves were fitted to global fit in a 1:1 binding model to obtain KD values. The binding affinity to both species is reported.

[6] = molecular target: T4, cyno LTBR His (R&D), recombinant protein (cynomolgus (Macaca fascicularis), UniProt P36941 31-227 (human entry), limits assumed); test: as above
T4 construct: bought protein used as analyte on Carterra LSA
Description: as §1

[7] = molecular target: Human FAP (Acro), recombinant protein (human, UniProt Q12884 26-760); test: SPR (Carterra LSA) as in Example 3.6, antibody captured, FAP as analyte; * value outside instrument specifications
Description: (§2) Binding of anti-FAP antibodies to human and cynomolgus FAP was investigated by Surface Plasmon Resonance (SPR) on Carterra LSA. An EC30M chip was used to capture the test antibodies. The chip was activated for bioconjugation using EDC and sNHS in MES pH 5.5 to prepare the chip for amine coupling. Goat anti-human IgG Fc antibody was then captured to the chip via incubation for 10 minutes. Excess conjugation sites were quenched with 1M Ethanolamine pH 8. To measure monovalent binding kinetics, antibodies were printed/spotted onto the chip and allowed to bind to the goat antibody, followed by subsequent washing. After the preparation, the printed chip was exposed to repeated rounds of association and dissociation with increasing analyte concentrations. In this work, recombinant proteins (Human FAP (Acro) or cyno FAP His (Acro)) were serially diluted across a range starting at 1500 nM with 3-fold dilutions and 10 points. The curves were fitted to global fit in a 1:1 binding model to obtain KD values. The binding affinity to both human and cynomolgus FAP is reported in.

[8] = molecular target: T5, cyno FAP His (Acro), recombinant protein (cynomolgus (Macaca fascicularis), UniProt Q12884 26-760 (human entry)); test: as above
T5 construct: bought protein used as analyte on Carterra LSA
Description: as §2

[9] = molecular target: T2, human LTBR endogenously expressed on …; test: cell-based or functional assay; remark: listed apart in the source
[10] = molecular target: T2, human LTBR endogenously expressed on …; test: cell-based or functional assay; remark: listed apart in the source
[11] = molecular target: T2, human LTBR endogenously expressed on …; test: cell-based or functional assay; remark: listed apart in the source
[12] = molecular target: T2, human LTBR endogenously expressed on …; test: cell-based or functional assay; remark: listed apart in the source
[13] = molecular target: T2, human LTBR endogenously expressed on …; test: flow cytometry, A375 cells
[14] = molecular target: T3, human FAP expressed on cells …; test: flow cytometry, FAP-CHO-K1 cells
Description: (§3) In short, 1×10⁶ cells were resuspended in the FACS buffer (1% BSA, 0.1% Sodium Azide in PBS), and 50 μl was added to each well (5×10⁴ cells/well) of a 96-U bottom plate. The cells were washed once and resuspended in 50 μl/well of FACS buffer containing a 1:3, 11-point series dilutions of constructs 4.1-4.6 and clones 4.8-4.9 followed by 1 h incubation at 4° C. […] Next, cells were washed and resuspended in FACS buffer and read on Beckman Coulter CytoFLEX. The data were analysed using FloJo V10 and GraphPad Prism v9. Clone 4.7 was tested for binding to A375 (LTBR positive cell line) and the HEK293-FAP overexpressing cell line, as described in examples 2.4 and 3.5. The EC50 values can be found in.

[15] = molecular target: T6, Biotinylated hLTBR-His-Avitag (Acro, cat no LTR-H82E9-25 µg) (human, UniProt P36941 31-227, biotinylated (Avitag)); test: BLI (Octet), biotinylated LTBR on SA sensor, antibody as analyte
T6 construct: bought protein loaded on SA Streptavidin biosensors
Description: Briefly, Biotinylated hLTBR-His-Avitag (Acro, cat no LTR-H82E9-25 μg) was loaded on SA Streptavidin biosensors (Fortebio) in kinetics buffer (ForteBio) followed by a 2-fold dilution series starting at 50 nM of FAP/LTBR bispecific antibodies. Binding kinetics were studied in a 1× Kinetics buffer where the association was allowed for 100 seconds, followed by dissociation for 300 seconds. Data generated were referenced by subtracting a parallel buffer blank, the baseline was aligned with the y-axis, inter-step correlation by alignment against dissociation was performed, and the data were smoothed by a Savitzky-Golay filter in the data analysis software. The processed data were fitted using a 1:1 Langmuir binding model with R\hat{ }2 as a measurement of fitting accuracy. The KD and R\hat{ }2 values can be found in.

[16] = molecular target: cynomologus recombinant LTBR (Octet, Example 4.8) (cynomolgus (Macaca fascicularis), UniProt P36941 31-227 (human entry), limits assumed); test: BLI (Octet), cyno LTBR immobilised on ARG sensor, antibody at 25 nM
Description: A 2-fold series dilution starting at 50 nM of cynomologus recombinant LTBR was immobilised on the surface of ARG biosensors (Fortebio), followed by FAP/LTBR bispecific at 25 nM. Binding kinetics were studied in a 1× Kinetics buffer where the association was allowed for 180 seconds, followed by dissociation for 100 seconds. Sensor tips were regenerated using ethylene glycol. Data generated were referenced by subtracting a parallel buffer blank, the baseline was aligned with the y-axis, inter-step correlation by alignment against dissociation was performed, and the data were smoothed by a Savitzky-Golay filter in the data analysis software. The processed data were fitted using a 1:1 Langmuir binding model with R\hat{ }2 as a measurement of fitting accuracy. The KD values can be found in.

[17] = molecular target: T7, human FAP (Acro, cat no FAP-H82Q6) (human, UniProt Q12884 26-760); test: BLI (Octet), antibody captured by anti-Fc, FAP as analyte; * value outside instrument specifications; avid binding to dimeric FAP; value flagged as outside instrument specifications
T7 construct: 'FAP is naturally a dimeric antigen'
Description: Binding to recombinant FAP proteins was investigated by Bio-Layer Interferometry (BLI) using the Octet instrument. Using standard amine coupling chemistry, an anti-Fc antibody was immobilised on the surface of ARG biosensors (Fortebio). The FAP/LTBR bispecific antibodies were loaded on the previously coated surface with anti-Fc capture antibody, followed by a 2-fold series dilution starting at 50 nM of either cyno FAP (Acro, cat no FAP-C82Q5) or human FAP (Acro, cat no FAP-H82Q6). Binding kinetics were studied in a 1× Kinetics buffer where the association was allowed for 200 seconds, followed by dissociation for 400 seconds. Sensor tips were regenerated using 10 mM Glycine pH 2.0. Data generated were referenced by subtracting a parallel buffer blank, the baseline was aligned with the y-axis, inter-step correlation by alignment against dissociation was performed, and the data were smoothed by a Savitzky-Golay filter in the data analysis software. The processed data were fitted using a 1:1 Langmuir binding model with R\hat{ }2 as a measurement of fitting accuracy. The Results are summarised in. Avidity was observed as FAP is naturally a dimeric antigen, and the limited detection by Octet with these molecules has been reached. Species cross-reactivity has been confirmed for all test samples.

[18] = molecular target: T2, human LTBR endogenously expressed on …; test: flow cytometry, A549 cells
Description: as §3

T1 sequence (P50284 31-415): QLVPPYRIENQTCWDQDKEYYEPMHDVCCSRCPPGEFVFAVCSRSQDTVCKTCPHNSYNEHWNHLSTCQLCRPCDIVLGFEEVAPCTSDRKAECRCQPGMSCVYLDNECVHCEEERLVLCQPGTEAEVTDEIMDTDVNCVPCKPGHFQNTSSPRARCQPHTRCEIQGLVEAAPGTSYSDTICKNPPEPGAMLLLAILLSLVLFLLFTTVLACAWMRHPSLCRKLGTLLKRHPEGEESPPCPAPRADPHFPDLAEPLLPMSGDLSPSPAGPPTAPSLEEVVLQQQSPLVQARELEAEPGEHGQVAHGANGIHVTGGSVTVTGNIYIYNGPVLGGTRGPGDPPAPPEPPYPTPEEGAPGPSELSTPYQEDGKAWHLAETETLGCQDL
T2 sequence (P36941 31-435): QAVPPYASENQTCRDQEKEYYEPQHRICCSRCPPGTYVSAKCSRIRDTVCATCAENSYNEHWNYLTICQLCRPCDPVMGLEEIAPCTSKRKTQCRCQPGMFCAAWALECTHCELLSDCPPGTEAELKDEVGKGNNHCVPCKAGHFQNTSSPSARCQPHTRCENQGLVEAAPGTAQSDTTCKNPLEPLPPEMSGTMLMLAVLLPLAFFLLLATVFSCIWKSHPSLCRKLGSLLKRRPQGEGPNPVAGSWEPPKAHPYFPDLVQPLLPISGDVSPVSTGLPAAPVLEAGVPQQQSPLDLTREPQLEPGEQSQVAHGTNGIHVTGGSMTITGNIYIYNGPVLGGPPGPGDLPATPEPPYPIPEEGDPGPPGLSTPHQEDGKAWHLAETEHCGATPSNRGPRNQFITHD
T4 sequence (P36941 other isoform, or with tags, fused parts or gaps limits assumed): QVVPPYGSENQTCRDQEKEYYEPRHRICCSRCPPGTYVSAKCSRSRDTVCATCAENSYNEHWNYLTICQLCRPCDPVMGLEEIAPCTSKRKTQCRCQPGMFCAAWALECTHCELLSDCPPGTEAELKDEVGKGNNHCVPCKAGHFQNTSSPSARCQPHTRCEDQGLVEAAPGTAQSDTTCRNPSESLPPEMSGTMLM
Sequence of cynomologus recombinant LTBR (Octet, Example 4.8) (P36941 other isoform, or with tags, fused parts or gaps limits assumed): as above
T6 sequence (P36941 31-227 limits assumed): as the sequence (P36941 other isoform, or with tags, fused parts or gaps limits assumed) above, with V2A, G7A, R24Q, S45I, D163N, R181K, S184L, S186P counted along it
Sequence of Human LTBR (Acro), recombinant protein (P36941 31-227 limits assumed): as the sequence (P36941 other isoform, or with tags, fused parts or gaps limits assumed) above, with V2A, G7A, R24Q, S45I, D163N, R181K, S184L, S186P counted along it

B1: Clone 4.14 (antibody, V domains shown)
VH: QVQLKESGPGLVQPSQTLSLTCTVSGFSLTTYSVHWVRQHSGKSLEWMGRMWTDGDTSYNSAFTSRLSISRDTSKSQVFLKMNSLQTEDTGTYYCARGYWYFDFWGPGTMVTVSS
VL: DVQMTQSPSYLAASPGESVSIRCKASKSISNNLAWYQEKPGKANKLLIHSGSTLQSGTPSRFSGSGSGTDFTLTIRSLEFEDFAVYYCQQYNEYPYTFGAGTKLELK
ICAM1 induction in PMLF EC50 [1]: 63 pM
ICAM1 induction in PMLF EC50, 4.14 + cross-linking antibody [1]: 21 pM
4T1:CHO-FAP co-culture CCL5 read-out EC50 [2]: 280 pM
4T1:CHO-FAP co-culture CCL5 read-out EC50, 4.14 + cross-linking antibody [2]: 96 pM
4T1 monoculture CCL5 read-out EC50 [2]: 470 pM
4T1 monoculture CCL5 read-out EC50, 4.14 + cross-linking antibody [2]: 140 pM

B2: Clone 4.7 (bispecific antibody, human IgG1, kappa, L234A L235A)
heavy 1: not shown
heavy 2: QVQLVQSGAEVKKPGASVKVSCKASGYTFTGYYMNWVRQAPGQGLEWMGWINPQSGDVNFAQKFQGRVTMTRDTSISTAYMELSRLRSDDTAVYYCARQFRGYSYGYGMDVWGQGTTVTVSSASTKGPSVFPLAPSSKSTSGGTAALGCLVKDYFPEPVTVSWNSGALTSGVHTFPAVLQSSGLYSLSSVVTVPSSSLGTQTYICNVNHKPSNTKVDKKVEPKSCDKTHTCPPCPAPEAAGGPSVFLFPPKPKDTLMISRTPEVTCVVVDVSHEDPEVKFNWYVDGVEVHNAKTKPREEQYNSTYRVVSVLTVLHQDWLNGKEYKCKVSNKALPAPIEKTISKAKGQPREPQVCTLPPSRDELTKNQVSLSCAVKGFYPSDIAVEWESNGQPENNYKTTPPVLDSDGSFFLVSKLTVDKSRWQQGNVFSCSVMHEALHNHYTQKSLSLSPG
light: not shown
notes: FAP:LTBR 2:1 heterodimer of FAP mAb (clone 3.7) with C terminal fused LTBR scFv (clone 2.3), human IgG1 LALA
chemokine (CCL5) induction in RPMI-7951 EC50 [3]: 9.6 pM
EC50 [4]: 340 pM
Kd [5]: 1800 pM
Kd [6]: 400 pM
Kd [7]: 160 pM
Kd [8]: 150 pM
HCC-1187:RPMI7951 (cis-activation) co-culture assay CCL5 read-out EC50 [9]: 10 pM
CCL19 upregulation, HCC1187:CAF Co-culture EC50 [10]: 73 pM
ICAM1 upregulation in CAFs monoculture assay EC50 [11]: 12 pM
HepG2 Reporter assay, HepG2:FAP-CHO-K1 Co-culture EC50 [12]: 23 pM
EC50 [13]: 6000 pM

B3: Clone 4.1 (bispecific antibody, human IgG1, kappa, L234A L235A)
heavy 1: not shown
heavy 2: QLQLQESGPGLVKPSETLSLTCTVSGGSISSSTYYWGWIRQPPGKGLEWIGSIFYSGNTYYNPSLKSRVTISVDTSKNHFSLKLSSVTAADTAVYYCAREIIEPRPGYFDYWGQGTLVTVSSASTKGPSVFPLAPSSKSTSGGTAALGCLVKDYFPEPVTVSWNSGALTSGVHTFPAVLQSSGLYSLSSVVTVPSSSLGTQTYICNVNHKPSNTKVDKKVEPKSCDKTHTCPPCPAPEAAGGPSVFLFPPKPKDTLMISRTPEVTCVVVDVSHEDPEVKFNWYVDGVEVHNAKTKPREEQYNSTYRVVSVLTVLHQDWLNGKEYKCKVSNKALPAPIEKTISKAKGQPREPQVCTLPPSRDELTKNQVSLSCAVKGFYPSDIAVEWESNGQPENNYKTTPPVLDSDGSFFLVSKLTVDKSRWQQGNVFSCSVMHEALHNHYTQKSLSLSPG
light: not shown
notes: FAP:LTBR 1:1 heterodimer of LTBR VHH (clone 1.6) paired with FAP Fab (clone 3.5), human IgG1 LALA
chemokine (CCL5) induction in RPMI-7951 EC50 [3]: 90 pM
EC50 [14]: 280 pM
HCC-1187:RPMI7951 (cis-activation) co-culture assay CCL5 read-out EC50 [9]: 52 pM
HCC-1187:RPMI7951 (trans-activation) co-culture assay, CCL19 Read-out EC50 [9]: 84 pM
CCL19 upregulation, HCC1187:CAF Co-culture EC50 [10]: 55 pM
Kd [15]: 4000 pM
Kd [16]: 7700 pM
ICAM1 upregulation in CAFs monoculture assay EC50 [11]: 26 pM
HepG2 Reporter assay, HepG2:FAP-CHO-K1 Co-culture EC50 [12]: 70 pM
Kd [17]: 182 pM
EC50 [18]: 29000 pM
